Laboratory results taken from patent US20240270840A1 (NECTIN THERAPEUTICS, published 2024).
Residue numbers refer to the chain shown, from its start. Names may count otherwise.

Columns and labels:
Human CD112R (PVRIG) [1] = target: T1, Human CD112R (PVRIG) (human, UniProt Q6DKI7 41-171, limits assumed); assay: SPR (Biacore); human CD112R as ligand, antibody as analyte; * limit of Biacore instrument
T1 sequence (looked up): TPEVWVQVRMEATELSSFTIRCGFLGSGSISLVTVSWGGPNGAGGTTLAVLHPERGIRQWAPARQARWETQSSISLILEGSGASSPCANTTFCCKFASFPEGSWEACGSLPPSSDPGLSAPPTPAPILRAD

Human CD112R (PVRIG) [2] = target: T1, Human CD112R (PVRIG); assay: SPR (Biacore), against the reference Ab
[3] = target: T2, Human CD112R expressed on cells (human, UniProt Q6DKI7 1-326); assay: flow cytometry on 293T cells expressing human CD112R; 99-0.05 nM, three-fold dilutions
T2 construct: whole, on cells; also called HuCD112R; hCD112R
T2 sequence (looked up): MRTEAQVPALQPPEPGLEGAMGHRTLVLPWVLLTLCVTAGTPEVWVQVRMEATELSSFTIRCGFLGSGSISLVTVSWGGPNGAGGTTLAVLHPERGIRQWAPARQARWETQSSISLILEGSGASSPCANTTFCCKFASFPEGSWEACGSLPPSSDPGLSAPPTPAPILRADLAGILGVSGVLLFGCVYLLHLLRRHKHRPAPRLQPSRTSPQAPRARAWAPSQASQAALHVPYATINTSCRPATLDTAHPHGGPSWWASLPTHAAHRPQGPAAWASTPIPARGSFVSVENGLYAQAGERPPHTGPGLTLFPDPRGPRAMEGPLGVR
Description: The humanized mAbs were tested for binding of endogenous and overexpressed human and cynomolgus CD112R.

[4] = target: T2, Human CD112R expressed on cells; assay: FACS, chimeric mAb 99-0.4 nM in three-fold dilutions on HEK 293T cells overexpressing CD112R, anti-human-APC 1:200
Description: For detection, anti-human-APC antibody (Ab) was used at 1:200 dilution, and cell binding was analyzed by FACS. FIG. 3C—8866 cells ([…]) overexpressing human Nectin-2 were incubated with 10 μg/ml of CD112R-Fc in the presence of isotype control Ab, or with the indicated clones at 4 μg/ml. Bound CD112R-Fc was detected by anti-mouse-Dy-647 1:250 dilution and analyzed by FACS. The blocking of CD112R binding exceeded 95% by all the variants.
Binding was analyzed by FACS and used for calculation of EC-50 values. […] The N31S variant, engineered to remove an N-Linked glycosylation motif at the CDR1 of the heavy chain, had improved (sub-nM) binding to human CD112R in this cell-based assay.

[5] = target: Cynomolgus monkey (Macaca fascicularis) CD112R expressed on cells (cynomolgus monkey (Macaca fascicularis)); assay: flow cytometry on 293T cells expressing cynomolgus CD112R; 99-0.05 nM, three-fold dilutions
[6] = target: Cynomolgus monkey (Macaca fascicularis) CD112R expressed on cells (cynomolgus monkey (Macaca fascicularis)); assay: flow cytometry on 293T cells; EC50 on cynomolgus CD112R against EC50 on human CD112R
Human CD112R (PVRIG) [7] = target: T1, Human CD112R (PVRIG); assay: affinity of glycosylation-motif variants (Table 2; method not named there)
Human CD112R (PVRIG) [8] = target: T1, Human CD112R (PVRIG); assay: SPR (Biacore); human CD112R as ligand, antibody as analyte
Human CD112R (PVRIG) [9] = target: T1, Human CD112R (PVRIG); assay: SPR (Biacore); purified full antibody

B1: chimeric clone-13(N31S)-hIgG1 (VH0K0) (antibody, V domains shown)
VH: QVQLQQPGAELVKPGTSVKLSCKASGYNFTSYWINWVKLRPGQGLEWIGDIYPGSYIPNYNEKFKNKATLTVDTSSSTAYMQLTSLASEDSALYYCAGGYFDVWGAGTTVTVSS
VL: DIVMTQSPSSLSVSAGEKVTMSCKSSQSLLSSGNQKNYLAWYQQKPGQPPKLLIYGASTRESGVPDRFTGSGSGTDFTLTISSVQAEDLAVYYCQNDHSYPYTFGGGTKLEIK
notes: Chimeric, human IgG1; Light chain with N31S (deamidation removal), also denoted N27dS by Kabat numbering; also called clone N31S; VH0Vk0
- Kd (Human CD112R (PVRIG) [1]): 0.00096 nM
- fold more potent in binding CD112R than the reference Ab (Human CD112R (PVRIG) [2]): 3 to 30 fold
- EC50 [3]: 0.55 nM
- EC50 [4]: 0.7 nM
- EC50 [5]: 0.97 nM
- Ratio Cyno/Hu (EC50) [6]: 1.75
- Kd (Human CD112R (PVRIG) [7]): 0.167 nM
- Relative Kd (against VH0Vk0) (Human CD112R (PVRIG) [7]): 1
- koff (Human CD112R (PVRIG) [8]): 3.26e-07 s⁻¹
- kon (Human CD112R (PVRIG) [8]): 340000 M⁻¹ s⁻¹
- Kd (Human CD112R (PVRIG) [9]): 0.145 nM
- Relative Kd (against VH0K0 N28T) (Human CD112R (PVRIG) [9]): 1.16
- koff (Human CD112R (PVRIG) [9]): 3.05e-05 s⁻¹
- kon (Human CD112R (PVRIG) [9]): 210000 M⁻¹ s⁻¹

B2: Clone-13-hIgG1 (antibody, V domains shown)
VH: B1 VH
VL: B1 VL with S31N
notes: Chimeric antibody with human IgG1 constant region; also called chimeric clone (clone 13)
- Kd (Human CD112R (PVRIG) [1]): 0.00871 nM
- fold more potent in binding CD112R than the reference Ab (Human CD112R (PVRIG) [2]): 3 to 30 fold
- EC50 [4]: 1.24 nM
- koff (Human CD112R (PVRIG) [8]): 2.96e-06 s⁻¹
- kon (Human CD112R (PVRIG) [8]): 340000 M⁻¹ s⁻¹
